Publication PMC8050316, “Tissue plasminogen activator is a ligand of cation-independent mannose 6-phosphate receptor and consists of glycoforms that contain mannose 6-phosphate” (Scientific Reports, 2021)

What was measured:
[1] = molecular target: human cation-independent mannose 6-phosphate receptor domains 1-5 (human) (UniProt P11717); test: SPR; C-terminally biotinylated human CI-MPR d1-5 on a streptavidin chip; tPA injected at various concentrations, one site specific binding fit; tPA at 120 nM with 5 mM M6P or 5 mM G6P
Sequence of human cation-independent mannose 6-phosphate receptor domains 1-5 (human) (P11717 36-763): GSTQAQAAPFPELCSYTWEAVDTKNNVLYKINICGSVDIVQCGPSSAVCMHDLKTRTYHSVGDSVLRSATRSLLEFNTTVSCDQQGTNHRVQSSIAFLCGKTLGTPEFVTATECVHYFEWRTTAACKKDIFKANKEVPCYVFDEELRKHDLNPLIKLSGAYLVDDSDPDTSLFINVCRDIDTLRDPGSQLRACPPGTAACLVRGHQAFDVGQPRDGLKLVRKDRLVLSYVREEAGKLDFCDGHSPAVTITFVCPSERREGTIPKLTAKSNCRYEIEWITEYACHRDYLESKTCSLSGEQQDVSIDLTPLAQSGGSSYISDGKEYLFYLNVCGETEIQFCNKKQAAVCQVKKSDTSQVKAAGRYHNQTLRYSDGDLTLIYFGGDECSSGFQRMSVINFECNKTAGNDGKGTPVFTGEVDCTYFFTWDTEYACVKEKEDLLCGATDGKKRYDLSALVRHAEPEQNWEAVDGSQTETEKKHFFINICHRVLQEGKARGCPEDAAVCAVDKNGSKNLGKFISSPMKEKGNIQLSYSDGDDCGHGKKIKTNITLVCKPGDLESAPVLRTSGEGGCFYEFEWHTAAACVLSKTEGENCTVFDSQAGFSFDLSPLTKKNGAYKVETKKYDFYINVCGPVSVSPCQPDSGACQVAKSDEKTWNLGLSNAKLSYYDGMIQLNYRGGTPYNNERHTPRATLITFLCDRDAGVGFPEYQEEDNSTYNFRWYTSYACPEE

[2] = molecular target: human cation-independent mannose 6-phosphate receptor domains 1-15 (entire extracellular region) (human) (UniProt P11717); test: SPR; biotinylated human CI-MPR d1-15 on a streptavidin-coupled CM5 chip, tPA injected at various concentrations, 25 °C, 40 µl/min for 2 min, response at equilibrium fit with a one site specific binding model
[3] = molecular target: bovine cation-independent mannose 6-phosphate receptor domains 1-15 (entire extracellular region) (bovine) (UniProt P08169); test: SPR; bovine CI-MPR d1-15 amine coupled to a CM5 chip, tPA injected at various concentrations, 25 °C, response at equilibrium fit with a one site specific binding model
Sequence of bovine cation-independent mannose 6-phosphate receptor domains 1-15 (entire extracellular region) (bovine) (P08169 47-2296): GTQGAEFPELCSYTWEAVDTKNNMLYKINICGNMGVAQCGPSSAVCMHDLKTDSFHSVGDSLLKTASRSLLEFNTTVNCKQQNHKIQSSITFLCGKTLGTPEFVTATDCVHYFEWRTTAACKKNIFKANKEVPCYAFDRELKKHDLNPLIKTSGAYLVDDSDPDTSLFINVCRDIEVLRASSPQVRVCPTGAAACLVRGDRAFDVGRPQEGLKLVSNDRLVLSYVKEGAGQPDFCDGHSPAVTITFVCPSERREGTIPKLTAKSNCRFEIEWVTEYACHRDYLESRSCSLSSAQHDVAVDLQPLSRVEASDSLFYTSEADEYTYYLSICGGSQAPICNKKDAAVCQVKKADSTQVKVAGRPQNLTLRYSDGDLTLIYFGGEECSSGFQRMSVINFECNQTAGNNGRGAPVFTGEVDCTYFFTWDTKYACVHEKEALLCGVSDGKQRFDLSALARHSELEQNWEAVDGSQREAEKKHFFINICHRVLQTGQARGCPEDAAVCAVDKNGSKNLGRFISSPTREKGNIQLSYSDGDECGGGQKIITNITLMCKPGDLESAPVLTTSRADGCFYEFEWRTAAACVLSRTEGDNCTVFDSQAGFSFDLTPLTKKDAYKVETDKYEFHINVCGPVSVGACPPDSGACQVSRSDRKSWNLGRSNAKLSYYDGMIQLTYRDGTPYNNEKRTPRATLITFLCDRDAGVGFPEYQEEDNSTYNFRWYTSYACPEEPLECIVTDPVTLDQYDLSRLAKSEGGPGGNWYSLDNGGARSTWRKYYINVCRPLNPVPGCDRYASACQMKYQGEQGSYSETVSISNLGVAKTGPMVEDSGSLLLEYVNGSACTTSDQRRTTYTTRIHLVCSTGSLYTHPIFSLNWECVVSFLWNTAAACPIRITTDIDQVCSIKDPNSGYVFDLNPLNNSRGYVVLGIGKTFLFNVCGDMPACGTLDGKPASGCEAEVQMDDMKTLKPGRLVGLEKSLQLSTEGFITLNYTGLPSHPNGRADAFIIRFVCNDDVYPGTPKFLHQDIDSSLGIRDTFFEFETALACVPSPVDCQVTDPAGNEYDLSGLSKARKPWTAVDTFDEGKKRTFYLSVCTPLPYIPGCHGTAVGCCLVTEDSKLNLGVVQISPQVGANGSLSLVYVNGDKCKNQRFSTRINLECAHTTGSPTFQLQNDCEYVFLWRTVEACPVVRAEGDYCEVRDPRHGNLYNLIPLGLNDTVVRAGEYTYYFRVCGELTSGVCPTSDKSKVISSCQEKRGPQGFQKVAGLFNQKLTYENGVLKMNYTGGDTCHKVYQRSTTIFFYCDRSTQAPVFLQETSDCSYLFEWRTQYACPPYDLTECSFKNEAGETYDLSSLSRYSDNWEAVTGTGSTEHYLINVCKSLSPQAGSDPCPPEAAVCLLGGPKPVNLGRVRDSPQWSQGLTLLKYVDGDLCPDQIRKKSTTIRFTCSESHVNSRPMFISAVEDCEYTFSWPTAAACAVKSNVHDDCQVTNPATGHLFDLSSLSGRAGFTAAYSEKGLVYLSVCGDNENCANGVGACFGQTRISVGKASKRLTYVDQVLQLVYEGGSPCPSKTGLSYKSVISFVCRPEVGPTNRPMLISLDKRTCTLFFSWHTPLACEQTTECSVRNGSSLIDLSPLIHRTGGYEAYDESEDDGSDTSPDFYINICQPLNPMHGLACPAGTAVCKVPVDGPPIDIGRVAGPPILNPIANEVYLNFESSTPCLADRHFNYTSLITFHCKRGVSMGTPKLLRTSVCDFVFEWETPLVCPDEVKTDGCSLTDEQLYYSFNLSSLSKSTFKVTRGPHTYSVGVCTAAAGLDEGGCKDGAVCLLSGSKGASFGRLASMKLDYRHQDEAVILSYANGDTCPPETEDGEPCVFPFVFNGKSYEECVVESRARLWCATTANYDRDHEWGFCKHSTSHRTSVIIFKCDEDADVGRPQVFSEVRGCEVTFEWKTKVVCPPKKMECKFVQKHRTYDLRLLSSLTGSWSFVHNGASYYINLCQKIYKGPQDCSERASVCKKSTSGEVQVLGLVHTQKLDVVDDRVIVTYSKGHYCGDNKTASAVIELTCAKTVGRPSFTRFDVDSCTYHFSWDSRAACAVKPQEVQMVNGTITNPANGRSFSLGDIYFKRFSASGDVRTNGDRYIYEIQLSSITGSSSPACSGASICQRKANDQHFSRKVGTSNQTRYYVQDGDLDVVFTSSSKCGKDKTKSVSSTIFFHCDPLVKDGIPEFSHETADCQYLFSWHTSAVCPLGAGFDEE

[4] = molecular target: bovine cation-independent mannose 6-phosphate receptor domains 1-15 (entire extracellular region) (bovine) (UniProt P08169); test: SPR; bovine CI-MPR d1-15 amine coupled; mock- or phosphatase-treated proteins injected in 10 mM HEPES, 150 mM sodium acetate, 5 mM β-glycerophosphate, 0.005% polysorbate-20, pH 7.4; tPA at 80 nM with 5 mM M6P, 5 mM G6P or no inhibitor
[5] = molecular target: T1, bovine cation-independent mannose 6-phosphate receptor domains 1-15 (entire extracellular region) (bovine, UniProt P08169 47-2296); test: SPR; recombinant tPA, native tPA or β-glucuronidase amine coupled; bovine CI-MPR d1-15 at 20 nM injected after preincubation with M6P, G6P or αMeMan (0.1, 1.0, 5.0 mM); conditions: both partners purified
T1 construct: cation-independent mannose 6-phosphate receptor (CI-MPR), bovine, domains 1-15, amino acids 47-2296; also called bovine CI-MPR d1-15; CI-MPR d1-15; source: Sf9, secreted, purified (Ni-NTA, Sephacryl S-300)
T1 sequence (P08169 47-2296): as above

Kd [1]	percent decrease in response at equilibrium with 5 mM G6P [1]	percent decrease in response at equilibrium with 5 mM M6P [1]	Kd [2]	Kd [3]	percent decrease in response with 5 mM G6P [4]	percent decrease in response with 5 mM M6P [4]	percent decrease in average response with 5 mM G6P [4]	percent decrease in average response with 5 mM M6P [4]	binding result [5]	Molecule
155 nM	21%	39%	81 nM	214 nM	–	–	–	–	–	native tissue plasminogen activator isolated from a human melanoma cell line (enzyme)
–	–	–	–	–	12%	13%	–	–	–	phosphatase-treated recombinant tissue plasminogen activator (enzyme)
134 nM	20%	40%	23 nM	108 nM	–	–	26%	55%	–	recombinant human tissue plasminogen activator (Cathflo Activase, alteplase) (enzyme)
–	–	–	–	–	–	–	–	–	binds	human β-glucuronidase (enzyme, UniProt P08236 23-651, looked up, M6P on its N-linked glycans, β-glucuronidase, human, lysosomal enzyme; also called mock-treated β-glucuronidase) LQGGMLYPQESPSRECKELDGLWSFRADFSDNRRRGFEEQWYRRPLWESGPTVDMPVPSSFNDISQDWRLRHFVGWVWYEREVILPERWTQDLRTRVVLRIGSAHSYAIVWVNGVDTLEHEGGYLPFEADISNLVQVGPLPSRLRITIAINNTLTPTTLPPGTIQYLTDTSKYPKGYFVQNTYFDFFNYAGLQRSVLLYTTPTTYIDDITVTTSVEQDSGLVNYQISVKGSNLFKLEVRLLDAENKVVANGTGTQGQLKVPGVSLWWPYLMHERPAYLYSLEVQLTAQTSLGPVSDFYTLPVGIRTVAVTKSQFLINGKPFYFHGVNKHEDADIRGKGFDWPLLVKDFNLLRWLGANAFRTSHYPYAEEVMQMCDRYGIVVIDECPGVGLALPQFFNNVSLHHHMQVMEEVVRRDKNHPAVVMWSVANEPASHLESAGYYLKMVIAHTKSLDPSRPVTFVSNSNYAADKGAPYVDVICLNSYYSWYHDYGHLELIQLQLATQFENWYKKYQKPIIQSEYGAETIAGFHQDPPLMFTEEYQKSLLEQYHLGLDQKRRKYVVGELIWNFADFMTEQSPTRVLGNKKGIFTRQRQPKSAAFLLRERYWKIANETRYPHSVAKSQCLENSLFT
